From publication PMC10267580 (2023)
Substitutions are numbered along the chain they refer to. Numbers in names are those of the source. Values belong to the binder of their own block, whether it stands above or below them.

What was measured:
[1] = target: Rab6B^Q72L, GTPase domain (residues 8-176), constitutively active mutant (mouse, UniProt P61294 8-176, Q72L); test: ITC
[2] = target: Rab6B^Q72L L11E, GTPase domain (mouse, UniProt P61294 8-176, Q72L | L11E); test: ITC
Sequence of Rab6B^Q72L L11E, GTPase domain (P61294 8-176 L11E/Q72L): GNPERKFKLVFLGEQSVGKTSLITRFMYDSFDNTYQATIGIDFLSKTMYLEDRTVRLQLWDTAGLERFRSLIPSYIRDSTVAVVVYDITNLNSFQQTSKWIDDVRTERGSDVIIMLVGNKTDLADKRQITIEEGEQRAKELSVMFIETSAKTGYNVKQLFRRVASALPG

Sequence of Rab6B^Q72L, GTPase domain (residues 8-176), constitutively active mutant (P61294 8-176 Q72L): as the sequence (P61294 8-176 L11E/Q72L) above, with E4L counted along it

Kd [1]: 26 µM
B1: ELKS1_RBD S868A (domain or fragment)
chain: RKHLEEVLEMKQEALLAAIAEKDANIALLELSSSKKKTQEEVAALKREKDRLVQQLKQQTQNRMKLMADNYEDD

Kd [2]: > 50 µM
B2: ELKS1_RBD, Rab-binding domain of ELKS1 (residues 849-922) (domain or fragment)
chain: B1 chain with A20S
